# Positions count from the first letter of the chain named. Values joined by “and” are separate entries in the source; they are usually repeats but may differ in a detail not shown here. Identical values can stand only once.
# T1: human OX40 (human, UniProt P43489 29-277)
# T1 construct: whole, on cells; also called hOX40
# T1 sequence (looked up): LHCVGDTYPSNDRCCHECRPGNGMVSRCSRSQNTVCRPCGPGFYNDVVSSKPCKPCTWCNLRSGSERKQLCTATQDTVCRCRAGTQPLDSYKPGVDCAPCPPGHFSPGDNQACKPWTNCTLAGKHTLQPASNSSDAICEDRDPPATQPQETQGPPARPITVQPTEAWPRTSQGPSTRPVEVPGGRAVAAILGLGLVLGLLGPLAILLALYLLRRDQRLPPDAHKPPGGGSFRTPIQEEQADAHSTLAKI
# B1: hG1-clone 41 (antibody, V domains shown)
# VH: QVQLVESGGGVVQPGRSLRLSCAASGFTFSSYGMHWVRQAPGKGLEWVALISYDGSNKIYTDSVKGRFTISRDNSKNTLYLQMNSLRPEDTAVYYCAKGREIVATYFDYWGQGTLVTVSS
# VL: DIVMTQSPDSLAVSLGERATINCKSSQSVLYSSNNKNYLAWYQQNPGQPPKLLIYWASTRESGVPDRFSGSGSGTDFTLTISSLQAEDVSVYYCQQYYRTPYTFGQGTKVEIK
# notes: Recombinantly expressed in bivalent human IgG1 format
# B2: mono-mut23-20E5 (Fc fusion)
# chain: IWELKKDVYVVELDWYPDAPGEMVVLTCDTPEEDGITWTLDQSSEVLGSGKTLTIQVKEFGDAGQYTCHKGGEVLSHSLLLLHKKEDGIWSTDILKDQKEPKNKTFLRCEAKNYSGRFTCWWLTTISTDLTFSVKSSRGSSDPQGVTCGAATLSAERVRGDNKEYEYSVECQEDSACPAAEESLPIEVMVDAVHKLKYENYTSSFFIRDIIKPDPPKNLQLKPLKNSRQVEVSWEYPDTWSTPHSYFSLTFSVQVQGKSKREKKDRVFTDKTSATVICRKNASISVRAQDRYYSSSWSEWASVPCSGGGGSGGGGSGGGGSGGGGSGGGGSRNLPVATPDPGMFPCLHHSQNLLRAVSNMLQKARQTLEFSPCTSEEIDHEDITKDKTSTVEACLPLELTKNESCLNSRETSFITNGSCLASRKTSFMMALCLSSIYEDLKMYQVEFKTMNAKLLMDPKRQIFLDQNMLAVIDELMQALNFNSETVPQKSSLEEPDFYKTAIKLCILLHAFRIRAVTIDRVMSYLNASGGGGSGGGGSEPKSSDKTHTCPPCPAPEFEGGPSVFLFPPKPKDTLMISRTPEVTCVVVDVSHEDPEVKFNWYVDGVEVHNAKTKPREEQYNSTYRVVSVLTVLHQDWLNGKEYKCKVSNKALPASIEKTISKAKGQPREPQVCTLPPSRDELTKNQVSLSCAVKGFYPSDIAVEWESNGQPENNYKTTPPVLDSDGSFFLVSKLTVDKSRWQQGNVFSCSVMHEALHNHYTQKSLSLSPG
# heavy: QVQLVQSGAEVKKPGASVKVSCKASGYTFTSYVMHWVRQAPGQRLEWIGYINPYNDGTKYNEKFKGRATLTSDKSASTAYMELSSLRSEDTAVYYCANYYGSSLSMDYWGQGTLVTVSSASTKGPSVFPLAPSSKSTSGGTAALGCLVKDYFPEPVTVSWNSGALTSGVHTFPAVLQSSGLYSLSSVVTVPSSSLGTQTYICNVNHKPSNTKVDKKVEPKSCDKTHTCPPCPAPEFEGGPSVFLFPPKPKDTLMISRTPEVTCVVVDVSHEDPEVKFNWYVDGVEVHNAKTKPREEQYNSTYRVVSVLTVLHQDWLNGKEYKCKVSNKALPASIEKTISKAKGQPREPQVYTLPPCRDELTKNQVSLWCLVKGFYPSDIAVEWESNGQPENNYKTTPPVLDSDGSFFLYSKLTVDKSRWQQGNVFSCSVMHEALHNHYTQKSLSLSPG
# light: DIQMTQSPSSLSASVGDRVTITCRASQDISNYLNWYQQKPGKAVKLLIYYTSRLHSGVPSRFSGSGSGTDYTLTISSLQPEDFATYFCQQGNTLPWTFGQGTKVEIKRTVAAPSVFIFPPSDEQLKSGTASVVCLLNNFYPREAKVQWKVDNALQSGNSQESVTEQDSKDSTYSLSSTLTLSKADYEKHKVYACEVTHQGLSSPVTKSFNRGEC
# notes: Monovalent for OX40
# B3: mono-mut23-12H3 (Fc fusion)
# chain: B2 chain
# heavy: QVQLVQSGAEVKKPGSSVKVSCKASGYTFKDYTMHWVRQAPGQGLEWIGGIYPNNGGSTYNQNFKDRVTLTADKSTSTAYMELSSLRSEDTAVYYCARMGYHGPHLDFDVWGQGTTVTVSSASTKGPSVFPLAPSSKSTSGGTAALGCLVKDYFPEPVTVSWNSGALTSGVHTFPAVLQSSGLYSLSSVVTVPSSSLGTQTYICNVNHKPSNTKVDKKVEPKSCDKTHTCPPCPAPEFEGGPSVFLFPPKPKDTLMISRTPEVTCVVVDVSHEDPEVKFNWYVDGVEVHNAKTKPREEQYNSTYRVVSVLTVLHQDWLNGKEYKCKVSNKALPASIEKTISKAKGQPREPQVYTLPPCRDELTKNQVSLWCLVKGFYPSDIAVEWESNGQPENNYKTTPPVLDSDGSFFLYSKLTVDKSRWQQGNVFSCSVMHEALHNHYTQKSLSLSPG
# light: DIQMTQSPSSLSASVGDRVTITCKASQDVGAAVAWYQQKPGKAPKLLIYWASTRHTGVPSRFSGSGSGTDFTLTISSLQPEDFATYYCQQYINYPLTFGGGTKVEIKRTVAAPSVFIFPPSDEQLKSGTASVVCLLNNFYPREAKVQWKVDNALQSGNSQESVTEQDSKDSTYSLSSTLTLSKADYEKHKVYACEVTHQGLSSPVTKSFNRGEC
# notes: Monovalent for OX40
# B4: mono-mut23-20E5_V4 (Fc fusion)
# chain: B2 chain
# heavy: B2 heavy with D56E
# light: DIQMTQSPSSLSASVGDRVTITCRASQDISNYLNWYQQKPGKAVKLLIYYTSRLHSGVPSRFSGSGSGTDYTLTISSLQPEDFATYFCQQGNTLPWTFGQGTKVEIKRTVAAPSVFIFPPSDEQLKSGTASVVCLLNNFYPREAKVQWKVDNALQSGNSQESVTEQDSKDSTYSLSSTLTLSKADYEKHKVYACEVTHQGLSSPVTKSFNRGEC
# Columns and labels:
# cynomolgus monkey OX40 [1] = target: T2, cynomolgus monkey OX40 (cynomolgus monkey); experiment: flow cytometry on cOX40-Jurkat-NF-κB cells, as in Example 16
# T2 construct: whole, on cells; also called cOX40; cynomolgus OX40
# Method: (§1) Stained hOX40-Jurkat-NF-κB and cOX40-Jurkat-NF-κB cells were analyzed by flow cytometry using a CytoFLEX (Beckman Coulter), the results of which are depicted in FIGS. 78 and 79, respectively, and summarized in FIG. 80.
# (§2) Sequences for the VH and VL domains of an additional anti-human OX40 antibody (clone 41) are provided in FIG. 112 (SEQ ID NOs: 170 and 171, respectively). To investigate whether clone 41 would be suitable for use within IL-12 ABD fusion proteins, this antibody was recombinantly expressed in bivalent human IgG1 format (termed ‘hG1-clone 41’) and subjected to protein A purification. […] Next, hG1-clone 41 was assessed for its capacity to block the binding of OX40L to hOX40-Jurkat-NF-κB cells, as described in Example 19. […] The capacity of hG1-clone 41 to block OX40L-induced signaling in hOX40-Jurkat-NF-κB cells was also assessed using a similar experimental setup as described in Example 20, the results of which are depicted in FIG. 117. […] Finally, the capacity of hG1-clone 41 to trigger OX40 signaling was assessed in hOX40-Jurkat-NF-κB cells, as described in Example 25.
# human OX40 [2] = target: T1, human OX40; experiment: flow cytometry on hOX40-Jurkat-NF-κB cells, as in Example 16
# Method: as §1, §2
# cynomolgus monkey OX40 [3] = target: T2, cynomolgus monkey OX40; experiment: flow cytometry on cOX40-Jurkat-NF-κB cells
# human OX40 [4] = target: T1, human OX40; experiment: flow cytometry, monovalent fusion protein on hOX40-Jurkat-NF-κB cells
# human OX40 [5] = target: T1, human OX40; experiment: competition, flow cytometry: inhibition of 2.5 nM A647-labelled OX40L-Fc binding to hOX40-Jurkat-NF-κB cells
# Method: To investigate whether any of BGB-A445, 20E5, or 12H3 competed with OX40L for the OX40 binding site, we assessed the capacity of these clones, either in traditional IgG1 monospecific, bivalent mAb format or as bispecific, monovalent IL-12 ABD fusion proteins, to block binding of OX40L to hOX40-Jurkat-NF-κB cells. For the experiment, 30,000 hOX40-Jurkat-NF-κB cells were pre-incubated with 0-450 nM mAb or IL-12 ABD fusion protein for 10 minutes on ice prior to being stained for an additional 10 minutes on ice with 2.5 nM OX40L-Fc (Sino Biological, catalogue number 13127-H01H) that had been coupled to an A647 fluorophore using a Zenon Human IgG labelling kit (Invitrogen, catalogue number Z25408). Stained hOX40-Jurkat-NF-κB cells were analyzed by flow cytometry, and are depicted as percentage of OX40L-Fc positive cells within the OX40 positive gate (defined using a non-competing anti-OX40 mAb (clone Ber-ACT35, BioLegend catalogue number 350012) in FIG. 89.
# human OX40 [6] = target: T1, human OX40; experiment: flow cytometry on hOX40-Jurkat-NF-κB cells
# Method: as §1
# Binding of each of the sequence optimized IL-12 ABD fusion proteins to hOX40-Jurkat-NF-κB cells was performed as described in Example 16, the results of which are depicted in FIG. 87 and summarized in FIG. 88.
# human OX40 [7] = target: T1, human OX40; experiment: cell-based or functional assay
binder,measurement,setting,value
B1,EC50,cynomolgus monkey OX40 [1],1 nM
same,EC50,human OX40 [2],1.1 nM
B2,fold difference of EC50 against hOX40-Jurkat-NF-κB cells,cynomolgus monkey OX40 [3],≤ 2 fold
same,binding result,human OX40 [4],binds
B3,fold difference of EC50 against hOX40-Jurkat-NF-κB cells,cynomolgus monkey OX40 [3],≤ 2 fold
same,IC50,human OX40 [5],227 nM
same,EC50,human OX40 [6],13.6 nM
B4,"IFNγ release by conventional CD4+ T cells (AlphaLISA), EC50, two PBMC donors",human OX40 [7],0.0277 nM and 0.0195 nM
same,"IFNγ release by induced Treg cells (AlphaLISA), EC50, two PBMC donors",human OX40 [7],0.0057 nM and 0.0138 nM

# Source: US20250236653A1 (ONKO INNATE, published 2025)
